# Source: US12662524B2
# Where “and” joins values, the source holds several entries; their conditions need not be identical. Identical values can stand only once.
# B1: D2D3D4M4 (protein)
# chain: CEVPTRLNSASLKQPYITQNYFPVGTVVEYECRPGYRREPSLSPKLTCLQNLKWSTAVEFCKKKSCPNPGEIRNGQIDVPGGILFGATISFSCNTGYKLFGSTSSFCLISGSSVQWSDPLPECREIYCPAPPQIDNGIIQGERDHYGYRQSVTYACNKGFTMIGEHSIYCTVNNDEGEWSGPPPECRGKSCRFPVVENGKQISGFGKKFYYKATVMFECDKGFYLDGSDTIVCDSNSTWDPPVPKCLKVL
# B2: decay-accelerating factor (DAF; CD55) (protein)
# chain: CGLPPDVPNAQPALEGRTSFPEDTVITYKCEESFVKIPGEKDSVICLKGSQWSDIEEFCNRSCEVPTRLNSASLKQPYITQNYFPVGTVVEYECRPGYRREPSLSPKLTCLQNLKWSTAVEFCKKKSCPNPGEIRNGQIDVPGGILFGATISFSCNTGYKLFGSTSSFCLISGSSVQWSDPLPECREIYCPAPPQIDNGIIQGERDHYGYRQSVTYACNKGFTMIGEHSIYCTVNNDEGEWSGPPPECRGKS
# B3: D2M2-4 (protein)
# chain: CEVPTRLNSASLKQPYITQNYFPVGTVVEYECRPGYRREPSLSPKLTCLQNLKWSTAVEFCKKKSCPYIRDPLNGQAVPANGTYEFGYQMHFICNEGYYLIGEEILYCELKGSVAIWSGKPPICEKVLCTPPPKIKNGKHTFSEVEVFEYLDAVTYSCDPAPGPDPFSLIGESTIYCGDNSVWSRAAPECKVVKCRFPVVENGKQISGFGKKFYYKATVMFECDKGFYLDGSDTIVCDSNSTWDPPVPKCLKVL
# B4: D2M2-4 (ML) (protein)
# chain: CEVPTRLNSASLKQPYITQNYFPVGTVVEYECRPGYRREPSLSPKLTCLQNLKWSTAVEFCYRETCPYIRDPLNGQAVPANGTYEFGYQMHFICNEGYYLIGEEILYCELKGSVAIWSGKPPICEKVLCTPPPKIKNGKHTFSEVEVFEYLDAVTYSCDPAPGPDPFSLIGESTIYCGDNSVWSRAAPECKVVKCRFPVVENGKQISGFGKKFYYKATVMFECDKGFYLDGSDTIVCDSNSTWDPPVPKCLKVL
# B5: membrane cofactor protein (MCP; CD46) (protein)
# chain: CEEPPTFEAMELIGKPKPYYEIGERVDYKCKKGYFYIPPLATHTICDRNHTWLPVSDDACYRETCPYIRDPLNGQAVPANGTYEFGYQMHFICNEGYYLIGEEILYCELKGSVAIWSGKPPICEKVLCTPPPKIKNGKHTFSEVEVFEYLDAVTYSCDPAPGPDPFSLIGESTIYCGDNSVWSRAAPECKVVKCRFPVVENGKQISGFGKKFYYKATVMFECDKGFYLDGSDTIVCDSNSTWDPPVPKCLKVL
# B6: D2D3M3M4 (Multi-4) (protein)
# chain: CEVPTRLNSASLKQPYITQNYFPVGTVVEYECRPGYRREPSLSPKLTCLQNLKWSTAVEFCKKKSCPNPGEIRNGQIDVPGGILFGATISFSCNTGYKLIGKTSSFCLISGSSVQWSDKLPICEKVLCTPPPKIKNGKHTFSEVEVFEYLDAVTYSCDPAPGPDPFSLIGESTIYCGDNSVWSRAAPECKVVKCRFPVVENGKQISGFGKKFYYKATVMFECDKGFYLDGSDTIVCDSNSTWDPPVPKCLKVL
# B7: D2D3M3M4 (L205K) (protein)
# chain: CEVPTRLNSASLKQPYITQNYFPVGTVVEYECRPGYRREPSLSPKLTCLQNLKWSTAVEFCKKKSCPNPGEIRNGQIDVPGGILFGATISFSCNTGYKLFGSTSSFCKISGSSVQWSDPLPECREIYCTPPPKIKNGKHTFSEVEVFEYLDAVTYSCDPAPGPDPFSLIGESTIYCGDNSVWSRAAPECKVVKCRFPVVENGKQISGFGKKFYYKATVMFECDKGFYLDGSDTIVCDSNSTWDPPVPKCLKVL
# B8: D2D3M3M4 (T200Y) (protein)
# chain: CEVPTRLNSASLKQPYITQNYFPVGTVVEYECRPGYRREPSLSPKLTCLQNLKWSTAVEFCKKKSCPNPGEIRNGQIDVPGGILFGATISFSCNTGYKLFGSYSSFCLISGSSVQWSDPLPECREIYCTPPPKIKNGKHTFSEVEVFEYLDAVTYSCDPAPGPDPFSLIGESTIYCGDNSVWSRAAPECKVVKCRFPVVENGKQISGFGKKFYYKATVMFECDKGFYLDGSDTIVCDSNSTWDPPVPKCLKVL
# B9: D2D3M3M4 (K195Y) (protein)
# chain: CEVPTRLNSASLKQPYITQNYFPVGTVVEYECRPGYRREPSLSPKLTCLQNLKWSTAVEFCKKKSCPNPGEIRNGQIDVPGGILFGATISFSCNTGYYLFGSTSSFCLISGSSVQWSDPLPECREIYCTPPPKIKNGKHTFSEVEVFEYLDAVTYSCDPAPGPDPFSLIGESTIYCGDNSVWSRAAPECKVVKCRFPVVENGKQISGFGKKFYYKATVMFECDKGFYLDGSDTIVCDSNSTWDPPVPKCLKVL
# B10: D2D3M3M4 (T192E) (protein)
# chain: CEVPTRLNSASLKQPYITQNYFPVGTVVEYECRPGYRREPSLSPKLTCLQNLKWSTAVEFCKKKSCPNPGEIRNGQIDVPGGILFGATISFSCNEGYKLFGSTSSFCLISGSSVQWSDPLPECREIYCTPPPKIKNGKHTFSEVEVFEYLDAVTYSCDPAPGPDPFSLIGESTIYCGDNSVWSRAAPECKVVKCRFPVVENGKQISGFGKKFYYKATVMFECDKGFYLDGSDTIVCDSNSTWDPPVPKCLKVL
# B11: D2D3M3M4 (F197I) (protein)
# chain: CEVPTRLNSASLKQPYITQNYFPVGTVVEYECRPGYRREPSLSPKLTCLQNLKWSTAVEFCKKKSCPNPGEIRNGQIDVPGGILFGATISFSCNTGYKLIGSTSSFCLISGSSVQWSDPLPECREIYCTPPPKIKNGKHTFSEVEVFEYLDAVTYSCDPAPGPDPFSLIGESTIYCGDNSVWSRAAPECKVVKCRFPVVENGKQISGFGKKFYYKATVMFECDKGFYLDGSDTIVCDSNSTWDPPVPKCLKVL
# B12: D2D3M3M4 (Multi-1) (protein)
# chain: CEVPTRLNSASLKQPYITQNYFPVGTVVEYECRPGYRREPSLSPKLTCLQNLKWSTAVEFCKKKSCPNPGEIRNGQIDVPGGILFGATISFSCNTGYKLFGSTSSFCLISGSSVQWSDPLPICEKVLCTPPPKIKNGKHTFSEVEVFEYLDAVTYSCDPAPGPDPFSLIGESTIYCGDNSVWSRAAPECKVVKCRFPVVENGKQISGFGKKFYYKATVMFECDKGFYLDGSDTIVCDSNSTWDPPVPKCLKVL
# B13: D2D3M3M4 (S199K) (protein)
# chain: CEVPTRLNSASLKQPYITQNYFPVGTVVEYECRPGYRREPSLSPKLTCLQNLKWSTAVEFCKKKSCPNPGEIRNGQIDVPGGILFGATISFSCNTGYKLFGKTSSFCLISGSSVQWSDPLPECREIYCTPPPKIKNGKHTFSEVEVFEYLDAVTYSCDPAPGPDPFSLIGESTIYCGDNSVWSRAAPECKVVKCRFPVVENGKQISGFGKKFYYKATVMFECDKGFYLDGSDTIVCDSNSTWDPPVPKCLKVL
# B14: D2D3M3M4 (Multi-5) or DCP (protein)
# chain: CEVPTRLNSASLKQPYITQNYFPVGTVVEYECRPGYRREPSLSPKLTCLQNLKWSTAVEFCKKKSCPNPGEIRNGQIDVPGGILFGATISFSCNTGYKLIGSTSSFCLISGSSVQWSDKLPICEKVLCTPPPKIKNGKHTFSEVEVFEYLDAVTYSCDPAPGPDPFSLIGESTIYCGDNSVWSRAAPECKVVKCRFPVVENGKQISGFGKKFYYKATVMFECDKGFYLDGSDTIVCDSNSTWDPPVPKCLKVL
# B15: D2D3M3M4 (P216K) (protein)
# chain: CEVPTRLNSASLKQPYITQNYFPVGTVVEYECRPGYRREPSLSPKLTCLQNLKWSTAVEFCKKKSCPNPGEIRNGQIDVPGGILFGATISFSCNTGYKLFGSTSSFCLISGSSVQWSDKLPECREIYCTPPPKIKNGKHTFSEVEVFEYLDAVTYSCDPAPGPDPFSLIGESTIYCGDNSVWSRAAPECKVVKCRFPVVENGKQISGFGKKFYYKATVMFECDKGFYLDGSDTIVCDSNSTWDPPVPKCLKVL
# B16: D2D3M3M4 (protein)
# chain: CEVPTRLNSASLKQPYITQNYFPVGTVVEYECRPGYRREPSLSPKLTCLQNLKWSTAVEFCKKKSCPNPGEIRNGQIDVPGGILFGATISFSCNTGYKLFGSTSSFCLISGSSVQWSDPLPECREIYCTPPPKIKNGKHTFSEVEVFEYLDAVTYSCDPAPGPDPFSLIGESTIYCGDNSVWSRAAPECKVVKCRFPVVENGKQISGFGKKFYYKATVMFECDKGFYLDGSDTIVCDSNSTWDPPVPKCLKVL
# B17: D2D3 (protein)
# chain: CEVPTRLNSASLKQPYITQNYFPVGTVVEYECRPGYRREPSLSPKLTCLQNLKWSTAVEFCKKKSCPNPGEIRNGQIDVPGGILFGATISFSCNTGYKLFGSTSSFCLISGSSVQWSDPLPECREIY
# Key:
# [1] = molecular target: AP C3-convertase (C3bBb) (Homo sapiens (Human)) (UniProt P01024)
# [2] = substrate: CP C3-convertase (C4b2a) (Homo sapiens (Human)) (UniProt P0C0L4)
# [3] = molecular target: C3b (Homo sapiens (Human)) (UniProt P01024)
# [4] = molecular target: C4b (Homo sapiens (Human)) (UniProt P0C0L4)
# C4b (Homo sapiens (Human)), sequence (P0C0L4 757-1446 limits assumed, chain 1 of 2): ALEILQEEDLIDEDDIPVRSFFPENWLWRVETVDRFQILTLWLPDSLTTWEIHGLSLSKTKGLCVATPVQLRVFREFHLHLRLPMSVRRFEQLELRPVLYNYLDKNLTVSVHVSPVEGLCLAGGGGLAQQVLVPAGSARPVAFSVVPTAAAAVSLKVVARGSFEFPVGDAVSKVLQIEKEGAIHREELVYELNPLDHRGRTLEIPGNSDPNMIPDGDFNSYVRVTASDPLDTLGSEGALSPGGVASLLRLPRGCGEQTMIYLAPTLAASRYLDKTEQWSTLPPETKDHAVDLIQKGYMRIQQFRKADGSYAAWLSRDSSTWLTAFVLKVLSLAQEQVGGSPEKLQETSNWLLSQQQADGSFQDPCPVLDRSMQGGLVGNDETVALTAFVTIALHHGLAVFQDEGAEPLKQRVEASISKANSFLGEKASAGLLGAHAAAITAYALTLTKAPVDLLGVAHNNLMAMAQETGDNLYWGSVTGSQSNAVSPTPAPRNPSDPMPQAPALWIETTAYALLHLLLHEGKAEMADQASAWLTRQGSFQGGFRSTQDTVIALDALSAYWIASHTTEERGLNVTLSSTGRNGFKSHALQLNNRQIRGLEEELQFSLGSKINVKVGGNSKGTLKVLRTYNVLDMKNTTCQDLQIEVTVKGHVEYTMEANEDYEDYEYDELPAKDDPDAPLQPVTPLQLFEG
# C4b (Homo sapiens (Human)), sequence (P0C0L4 20-675 limits assumed, chain 2 of 2): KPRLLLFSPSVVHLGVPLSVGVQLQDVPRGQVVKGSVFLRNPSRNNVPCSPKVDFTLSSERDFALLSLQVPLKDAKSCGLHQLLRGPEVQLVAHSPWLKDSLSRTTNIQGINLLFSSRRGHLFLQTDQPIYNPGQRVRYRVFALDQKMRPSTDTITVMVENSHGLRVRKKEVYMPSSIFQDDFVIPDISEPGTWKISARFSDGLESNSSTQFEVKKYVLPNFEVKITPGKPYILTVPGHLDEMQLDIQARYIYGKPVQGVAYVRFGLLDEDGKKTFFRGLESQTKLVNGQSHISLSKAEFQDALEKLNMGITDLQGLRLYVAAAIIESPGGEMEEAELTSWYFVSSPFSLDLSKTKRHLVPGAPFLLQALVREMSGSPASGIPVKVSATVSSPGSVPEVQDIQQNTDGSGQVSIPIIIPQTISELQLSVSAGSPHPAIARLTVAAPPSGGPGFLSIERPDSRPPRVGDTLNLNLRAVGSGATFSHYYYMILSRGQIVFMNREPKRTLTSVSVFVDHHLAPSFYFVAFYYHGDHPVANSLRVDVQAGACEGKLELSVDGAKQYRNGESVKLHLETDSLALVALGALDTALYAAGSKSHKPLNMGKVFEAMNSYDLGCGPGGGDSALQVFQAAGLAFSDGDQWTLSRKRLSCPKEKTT
Binder,AP-DAA IC50 [1],CP-DAA IC50 [2],C3b CFA: time (min.) for 50% cleavage of C3b α′-chain [3],C4b CFA: time (min.) for 50% cleavage of C4b α-chain [4]
B1,5.6 nM,5.7 nM,,
B2,1.1 nM and 2.3 nM,16.5 nM and 14.5 nM and 2.6 nM,,
B3,> 10 nM,457 nM,,
B4,> 10 nM,> 1000 nM,,
B5,,,3.5 min and 2.1 min and 4.5 min,16.5 min and 12 min and 9.3 min
B6,> 10 nM,39.3 nM,17.5 min,5.5 min
B7,> 10 nM,9.2 nM,104 min,433 min
B8,3.7 nM,17.7 nM,103 min,513 min
B9,> 10 nM,> 100 nM,,> 540 min
B10,2.3 nM,15.3 nM,74.3 min,268 min
B11,4.4 nM,30.7 nM,49.8 min,66.7 min
B12,1.9 nM,22.6 nM,27.3 min,443 min
B13,6.6 nM,21.7 nM,18.9 min,181 min
B14,2.4 nM,12.7 nM,3.3 min,3.1 min
B15,3.4 nM,21 nM,30.1 min,93 min
B16,2.4 nM and 2.1 nM,5.1 nM and 15.9 nM,80.7 min and 82.6 min,429 min and 465 min
B17,> 10 nM,10.9 nM,,
